This is an account of results in patent publication US20230049152A1 (Genentech, published 2023).

One assay concerns the target T1, human CCR4 (human, UniProt P51679 1-360).
T1 construct: whole, on cells; transiently expressed on HEK293 cells
T1 sequence (looked up): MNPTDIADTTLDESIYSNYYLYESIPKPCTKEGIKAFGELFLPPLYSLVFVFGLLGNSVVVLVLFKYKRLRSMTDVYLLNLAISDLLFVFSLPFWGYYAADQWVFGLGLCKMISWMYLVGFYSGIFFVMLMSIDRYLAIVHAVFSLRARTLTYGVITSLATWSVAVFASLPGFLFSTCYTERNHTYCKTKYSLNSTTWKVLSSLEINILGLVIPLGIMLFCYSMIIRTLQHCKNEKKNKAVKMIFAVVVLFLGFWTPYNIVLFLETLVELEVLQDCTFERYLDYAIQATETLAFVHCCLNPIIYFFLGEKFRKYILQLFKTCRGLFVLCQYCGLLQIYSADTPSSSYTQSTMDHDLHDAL
In words: flow cytometry, HEK293 with N-term FLAG-tagged human CCR4. The text has this:
(§1) FIGS. 4A-4F depicts the binding data of hu.Ab3.H1L1 (FIG. 4A), hu.Ab4.H1L1 (FIG. 4B), and hu.Ab5.H1L1 (FIG. 4C), as well as the commercial anti-CCR8 mAbs murine anti-human CCR8 mAb 433H (BD Biosciences) (FIG. 4D), and murine anti-human CCR8 mAb L263G8 (Biolegend) (FIG. 4E), and the humanized anti-human Yoshida anti-CCR8 mAb (FIG. 4F), to HEK293 cells that were transiently transfected with N-term FLAG-tagged plasmids encoding for human GPCRs (CCR2, CCR3, CCR4, CCR5, CCR8, CXCR4, ACKR2, and ACKR4), hCCR8 constructs, or with a mock construct using transIT X2 (reagent:DNA=3:1).
(§2) To confirm the selectivity to CCR8, the binding of hu.Ab3.H1L1, hu.Ab4.H1L1, and hu.Ab5.H1L1, as well as the Yoshida humanized anti-human CCR8, murine anti-human CCR8 mAb L263G8 (Biolegend, Commercial Ab) and murine anti-human CCR8 mAb 433H (BD Biosciences, Commercial Ab), were characterized by flow cytometry on HEK293 cells that were transiently transfected with plasmids encoding for FLAG-tagged other related human GPCRs (CCR2-5, CXCR4, ACKR2, and ACKR4). Cell surface expression of each GPCR was confirmed by staining with an anti-FLAG antibody control. […]
On the technique in general: Flow cytometry measures light scatter and fluorescence of single cells or particles in a stream.

Assay [1] deals with T2, human CCR8 (human, UniProt P51685 1-355). The experiment in a line: cell-based or functional assay.
Assay [2] deals with T3, human CCR3 (human, UniProt P51677 1-355).
T3 construct: whole, on cells; transiently expressed on HEK293 cells
T3 sequence (looked up): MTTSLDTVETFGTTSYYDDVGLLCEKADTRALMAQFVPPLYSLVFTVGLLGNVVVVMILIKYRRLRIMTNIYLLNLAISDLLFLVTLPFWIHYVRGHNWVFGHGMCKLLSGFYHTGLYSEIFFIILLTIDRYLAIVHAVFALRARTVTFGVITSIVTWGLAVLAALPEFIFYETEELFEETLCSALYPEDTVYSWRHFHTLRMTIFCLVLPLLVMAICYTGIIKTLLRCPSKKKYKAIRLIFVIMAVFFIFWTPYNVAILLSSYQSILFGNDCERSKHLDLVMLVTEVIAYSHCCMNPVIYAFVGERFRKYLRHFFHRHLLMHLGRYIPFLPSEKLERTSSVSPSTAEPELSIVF
The experiment in a line: flow cytometry, HEK293 with N-term FLAG-tagged human CCR3.
Excerpt: as §1, §2

The target of the next assay is T4, cyno CCR8 (cynomolgus monkey, UniProt O97665 1-356 (rhesus entry)).
T4 construct: also called cynomolgus monkey CCR8
In words: flow cytometry on human and cyno CCR8 CHO cells.

The target in a further assay is T5, human ACKR2 (human, UniProt O00590 1-384).
T5 construct: whole, on cells; transiently expressed on HEK293 cells
T5 sequence (looked up): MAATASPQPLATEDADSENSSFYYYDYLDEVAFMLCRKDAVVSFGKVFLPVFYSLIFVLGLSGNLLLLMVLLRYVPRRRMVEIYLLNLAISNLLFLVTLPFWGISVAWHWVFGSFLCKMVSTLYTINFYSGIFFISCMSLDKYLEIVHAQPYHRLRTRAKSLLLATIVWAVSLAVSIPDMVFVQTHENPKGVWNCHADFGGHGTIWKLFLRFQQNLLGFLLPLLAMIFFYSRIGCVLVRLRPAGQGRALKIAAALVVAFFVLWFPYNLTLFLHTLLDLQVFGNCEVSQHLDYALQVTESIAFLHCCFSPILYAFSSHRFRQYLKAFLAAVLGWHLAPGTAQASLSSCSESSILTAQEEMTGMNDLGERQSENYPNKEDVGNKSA
In words: flow cytometry, HEK293 with N-term FLAG-tagged human ACKR2, procedure of FIG. 4. An excerpt:
(§3) To confirm the selectivity to CCR8, the binding of hu.Ab3.H1L1, hu.Ab4.H1L1, and hu.Ab5.H1L1, as well as the Yoshida humanized anti-human CCR8, murine anti-human CCR8 mAb L263G8 (Biolegend, Commercial Ab) and murine anti-human CCR8 mAb 433H (BD Biosciences, Commercial Ab), were characterized by flow cytometry on HEK293 cells that were transiently transfected with plasmids encoding for FLAG-tagged other related human GPCRs (CCR2-5, CXCR4, ACKR2, and ACKR4). Cell surface expression of each GPCR was confirmed by staining with an anti-FLAG antibody control. In particular, HEK293 cells were transfected with N-term FLAG-tagged human CCR2, CCR3, CCR4, CCR5, CXCR4, ACKR2, ACKR4, hCCR8 constructs, or with a Mock construct using transIT X2 (reagent:DNA=3:1) for 24 hours, and surface stained with various anti-hCCR8 monoclonal antibodies at 5 ug/ml, or rabbit anti-Flag pAb (Sigma) followed by AF647-anti-hIgG or AF647-anti-RbIgG respectively. Antibodies hu.Ab4.H1L1, and hu.Ab5.H1L1, only stained the hCCR8-containing cells, confirming their specificity to hCCR8. […] Thus, the CCR8 selective hu.Ab4.H1L1 and hu.Ab5.H1L1 antibodies with the best ADCC activities were carried forward.
(§4) To reconfirm that the Ab4 and Ab5 variants remained selective to CCR8 compared to the corresponding HIL1 variants, binding was analyzed by flow cytometry following the procedure as described for FIG. 4A and FIG. 4B. […]

The target of assay [3] is T2, human CCR8. The experiment in a line: cell-based or functional assay. This is another data set of the same source.
The target of a further assay is T6, human CXCR4 (human, UniProt P61073 1-352).
T6 construct: whole, on cells; transiently expressed on HEK293 cells
In words: flow cytometry, HEK293 with N-term FLAG-tagged human CXCR4, procedure of FIG. 4.
Excerpt: as §3, §4

In assay [4] the target is T3, human CCR3. The experiment in a line: flow cytometry, HEK293 with N-term FLAG-tagged human CCR3, procedure of FIG. 4.
Excerpt: as §3, §4

T6 sequence (P61073 whole entry): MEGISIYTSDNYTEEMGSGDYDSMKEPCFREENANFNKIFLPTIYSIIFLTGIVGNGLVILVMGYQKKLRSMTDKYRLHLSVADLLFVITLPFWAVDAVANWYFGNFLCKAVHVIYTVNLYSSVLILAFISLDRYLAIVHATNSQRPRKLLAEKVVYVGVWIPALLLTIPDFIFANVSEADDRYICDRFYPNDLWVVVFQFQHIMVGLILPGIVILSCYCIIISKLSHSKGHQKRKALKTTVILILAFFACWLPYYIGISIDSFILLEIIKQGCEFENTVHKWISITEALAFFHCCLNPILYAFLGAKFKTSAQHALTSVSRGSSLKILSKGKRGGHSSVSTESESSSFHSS
T4 sequence (O97665 other isoform, or with tags, fused parts or gaps): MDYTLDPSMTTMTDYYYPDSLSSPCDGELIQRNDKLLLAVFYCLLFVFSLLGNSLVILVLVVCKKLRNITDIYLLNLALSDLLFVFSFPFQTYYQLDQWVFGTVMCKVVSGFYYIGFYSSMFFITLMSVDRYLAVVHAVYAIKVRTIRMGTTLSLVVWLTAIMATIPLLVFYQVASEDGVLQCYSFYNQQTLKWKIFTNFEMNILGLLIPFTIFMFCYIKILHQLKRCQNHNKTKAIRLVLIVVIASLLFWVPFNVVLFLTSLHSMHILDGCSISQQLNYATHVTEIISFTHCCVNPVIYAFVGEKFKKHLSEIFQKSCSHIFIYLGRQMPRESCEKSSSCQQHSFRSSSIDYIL

B1: hu.Ab5.H1L1 (antibody, human IgG1, kappa)
heavy: not shown
light: DIQVTQSPSSLSASVGDRVTITCQASENIANALAWYQQKPGKPPKFLIYGASNLASGVPSRFSGSGSGTDFTFTISSLQPEDIATYYCQQAYYGNSFVEGTFGGGTKVEIKRTVAAPSVFIFPPSDEQLKSGTASVVCLLNNFYPREAKVQWKVDNALQSGNSQESVTEQDSKDSTYSLSSTLTLSKADYEKHKVYACEVTHQGLSSPVTKSFNRGEC
Consider B1, for which the binding result in the assay with human CCR4 was “no binding (tested: 5 ug/ml)”; in the assay with human CCR3 [2], “no binding (tested: 5 ug/ml)”; with cyno CCR8 it was “binds”. The “ADCC EC50, NK-92_F158 effector cells, calcein release” value with human CCR8 [1] is 20 pM.

B2: hu.Ab5.H13L1 (antibody, human IgG1, kappa)
heavy: not shown
light: DIQVTQSPSSLSASVGDRVTITCQASENIANALAWYQQKPGKPPKFLIYGASNLASGVPSRFSGSGSGTDFTFTISSLQPEDIATYYCQQAYYGNSFVEGTFGGGTKVEIKRTVAAPSVFIFPPSDEQLKSGTASVVCLLNNFYPREAKVQWKVDNALQSGNSQESVTEQDSKDSTYSLSSTLTLSKADYEKHKVYACEVTHQGLSSPVTKSFNRGEC
notes: fucosylated human IgG1; also called Ab5 variant
With B2, the binding result in the assay with human ACKR2, with human CXCR4 and with human CCR3 [4] was “no binding (tested: 5 ug/ml)” in each case. The “ADCC EC50, NK-92 F158 cells (FIG. 11A)” value in the assay with human CCR8 [3] worked out at 140 pM. In addition, the “ADCC EC50, NK-92 V158 cells (FIG. 11B)” value with human CCR8 [3] was 94 pM.

B3: hu.Ab4.H1L1 (antibody, human IgG1, kappa)
heavy: not shown
light: DYQMTQSPSSLSASVGDRVTITCQASQSISSYLSWYQQKPGKRPKLLIYKASTLASGVPSRFSGSGSGTDFTLTISSLQPEDFATYYCQQGYTSSNIDNIFGGGTKVEIKRTVAAPSVFIFPPSDEQLKSGTASVVCLLNNFYPREAKVQWKVDNALQSGNSQESVTEQDSKDSTYSLSSTLTLSKADYEKHKVYACEVTHQGLSSPVTKSFNRGEC
notes: also called hu.Ab4.H1Ll
Turning to B3, the binding result with human CCR4 is “no binding (tested: 5 ug/ml)”; with human CCR3 [2], “no binding (tested: 5 ug/ml)”; with cyno CCR8 it was “binds”. In the assay with human CCR8 [1], the “ADCC EC50, NK-92_F158 effector cells, calcein release” value is 80 pM.

B4: hu.Ab4.H12L3 (antibody, human IgG1, kappa)
heavy: not shown
light: DYQMTQSPSSLSASVGDRVTITCQASQSISSYLSWYQQKPGKAPKLLIYKASTLASGVPSRFSGSGSGTDFTLTISSLQPEDFATYYCQQGYTSSNIDNIFGGGTKVEIKRTVAAPSVFIFPPSDEQLKSGTASVVCLLNNFYPREAKVQWKVDNALQSGNSQESVTEQDSKDSTYSLSSTLTLSKADYEKHKVYACEVTHQGLSSPVTKSFNRGEC
notes: fucosylated human IgG1; also called huCCR8-Ab4.H12L3.hIgG1; Ab4 variant
For B4, the binding result in the assay with human ACKR2, with human CXCR4 and with human CCR3 [4] was “no binding (tested: 5 ug/ml)” each time. In addition, in the assay with human CCR8 [3], the “ADCC EC50, NK-92 F158 cells (FIG. 11A)” value was 270 pM. The “ADCC EC50, NK-92 V158 cells (FIG. 11B)” value in the assay with human CCR8 [3] is 210 pM.
